B1: ssnBVMO (Tepidiforma thermophila) (protein)
chain: MTSNAPQSFDSIIVGAGFAGLYQLIRLRRAGFSARVIEAGDNVGGTWYWNRYPGARCDIESLQYQYAFDPGLAKEWRWTERYATQPEILRYIEFVADRYDLRRDIQFSTRVTAAHYDEAAARWTVHTDRGDLYSCRYLVMATGCLSVPKTPEVPGIETFEGESYHTGAWPHEGVDFTGKRVAVIGTGSSAIQSIPIIARQAAHLTVFQRTPNFSVPAHNYFLDEEQWRAAAERIAELRAEARTTSAGITGLPLNDVSALAVSEEERRREYERRWAMGGFAIGGAFNDIAINPDANETAAEFVRQKIREIVQDPETAEALCPRDYPFGTKRLCVDIAYYETFNRPNVKLVSIRDNPIAAITPKGVRLENGDEYEFDAIVYATGFDAMTGALLRIDIRGRDGLTLREKWEHGPRTYLGIQVAGFPNMFTITGPGSPSVLSNMIVSIEQHVDWVTDCLEYLRERDLATIEASPAAEDAWVNHVNEVANLTLYPRANSWYIGANVPGKPRVFMPYVGGVGAYAQKCAEVAANGYEGFILQPEPAALSR
B2: PTDH-L1-ssnBVMO (Tepidiforma thermophila) (protein)
chain: B1 chain

Columns and labels:
Assay in all cases: purified protein
Details in all cases: 0.1 mM NADPH, 100 mM Tris pH 7.5, 50 °C, 2% p-dioxane
[1] = substrate: CC(=O)c1cccc(O)c1; format: biochemical, Tepidiforma thermophila
[2] = substrate: CC(=O)c1ccc(O)cc1; format: biochemical, Tepidiforma thermophila
[3] = substrate: CCCCCC(C)=O
[4] = substrate: CCC(=O)c1ccccc1
[5] = substrate: CC(=O)c1ccccc1
[6] = substrate: CC(=O)CCc1ccccc1
[7] = substrate: CCCCCCC(C)=O

Protein | Km [1] [mM] | kcat [1] [s⁻¹] | Km [2] [mM] | kcat [2] [s⁻¹] | Km [3] [µM] | kcat [3] [s⁻¹] | Km [4] [mM] | kcat [4] [s⁻¹] | Km [5] [mM] | kcat [5] [s⁻¹] | Km [6] [mM] | kcat [6] [s⁻¹] | Km [7] [mM] | kcat [7] [s⁻¹]
B1 | 2.5 ± 2.0 | 0.127 ± 0.038 | 1.28 ± 0.18 | 0.455 ± 0.026 | 3.7 ± 1.5 | 0.455 ± 0.038 | 0.373 ± 0.039 | 0.152 ± 0.003 | 2.52 ± 0.61 | 0.335 ± 0.018 | 0.022 ± 0.012 | 0.76 ± 0.10 | 0.0201 ± 0.0096 | 0.671 ± 0.076
B2 | 1.59 ± 0.27 | 0.120 ± 0.023 | 0.76 ± 0.12 | 0.301 ± 0.061 | 6.3 ± 3.1 | 0.61 ± 0.11 | 0.70 ± 0.14 | 0.371 ± 0.057 | 3.60 ± 0.79 | 0.459 ± 0.081 |  |  | 0.0257 ± 0.0025 | 0.536 ± 0.078

Reference: article doi:10.1101/2024.04.05.588253v1
